Patent US11732029B2, “Methods and compositions for the treatment of wounds” (The University of Chicago, priority 2017, dated 2023)
No end group written: not given here.

Columns and labels:
PDGF-BB [1] = biological target: T1, PDGF-BB (Homo sapiens, UniProt P01127); assay: Surface plasmon resonance, laminin against GF; details: SPR; laminin protein immobilized on chip, GF flowed; Langmuir binding kinetics
T1 construct: All growth factors (GFs) and chemokines were purchased in their mature forms; purchased PeproTech; host or cells: Escherichia coli
T1 sequence (P01127 82-190 limits assumed): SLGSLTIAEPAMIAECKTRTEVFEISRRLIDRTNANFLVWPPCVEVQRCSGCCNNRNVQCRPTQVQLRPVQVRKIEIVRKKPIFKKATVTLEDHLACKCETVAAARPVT
Experimental: (§1) SPR analysis was performed as described previously^2. In brief, measurements were made with a Biacore 3000 SPR system (GE Healthcare). Laminin-521 or laminin α32928-3150 was immobilized via amine coupling on a C1 chip (GE Healthcare) for ˜2000 or ˜1000 resonance units (RU), respectively, according to the manufacturer's instructions. VEGF-A165, PDGF-BB, or PlGF-2 was flowed at increasing concentrations in the running buffer at 20 μL/min. The sensor chip was regenerated with 50 mM NaOH for every cycle. Specific bindings of GFs to laminin were calculated by comparison to a non-functionalized channel used as a reference. Experimental results were fitted with Langmuir binding kinetics using BIAevaluation software (GE Healthcare).

VEGF-A165 [2] = biological target: T2, VEGF-A165 (Homo sapiens, UniProt P15692); assay: Surface plasmon resonance, laminin against GF; details: SPR; laminin protein immobilized on chip, GF flowed; Langmuir binding kinetics
T2 construct: All growth factors (GFs) and chemokines were purchased in their mature forms; purchased PeproTech; host or cells: Escherichia coli
T2 sequence (P15692 27-191 isoform P15692-4 limits assumed): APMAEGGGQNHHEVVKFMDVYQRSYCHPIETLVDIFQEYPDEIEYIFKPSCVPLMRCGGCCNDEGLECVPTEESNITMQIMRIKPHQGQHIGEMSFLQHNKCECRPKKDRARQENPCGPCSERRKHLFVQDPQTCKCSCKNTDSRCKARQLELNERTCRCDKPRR
Experimental: as §1

PlGF-2 [3] = biological target: T3, PlGF-2 (Homo sapiens, UniProt P49763); assay: Surface plasmon resonance, laminin against GF; design: All GFs and chemokines were purchased in their mature forms; purchased PeproTech; host or cells: Escherichia coli; details: SPR; laminin protein immobilized on chip, GF flowed; Langmuir binding kinetics
T3 sequence (P49763 19-170 isoform P49763-3 limits assumed): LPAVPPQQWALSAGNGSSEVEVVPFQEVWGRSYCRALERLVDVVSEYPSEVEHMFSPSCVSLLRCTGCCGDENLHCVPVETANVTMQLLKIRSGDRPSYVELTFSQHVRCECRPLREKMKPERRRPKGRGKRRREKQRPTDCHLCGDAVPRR
Experimental: as §1

CXCL-12γ = biological target: T4, CXCL-12γ (Homo sapiens, UniProt P48061); assay: Recombinant GF binding to the vWF recombinant protein and A1 HBD peptide (ELISA); details: plate coated with vWF protein, A1 domain or HBD peptide, 1 μg/mL GF
T4 construct: All GFs and chemokines were purchased in their mature forms; purchased R & D Systems; host or cells: Escherichia coli
T4 sequence (P48061 22-119 isoform P48061-3): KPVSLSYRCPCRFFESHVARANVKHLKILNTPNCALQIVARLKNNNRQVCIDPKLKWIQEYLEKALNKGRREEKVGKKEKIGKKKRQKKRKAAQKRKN
Experimental: (§2) ELISA tests were performed as described above. In brief, ELISA plates were coated with 1 μg/mL of FL-vWF (WT or R1341Q), 1 μg/mL of vWF A1 recombinant protein (U-Protein Express) or 1 μg/mL of vWF A1 HBD peptide (sequence […], (SEQ ID NO:50) chemically synthesized by Genscript) at 37° C. overnight. After blocking with 2% BSA solution containing PBS-T, 1 μg/mL of the recombinant human proteins VEGF-A121, VEGF-A165, PlGF-1, PlGF-2, PDGF-BB, FGF-2, CXCL-12α and CXCL-12γ were added. 1 μg/mL of BSA served as non-binding protein control. Bound GF or chemokine was detected with biotinylated antibodies for human VEGF-A, PlGF, PDGF-BB, FGF-2, or CXCL-12 (R & D Systems). The antibodies were detected by streptavidin-HRP (R & D Systems). Color development and the absorbance measurement were done as described above.

PDGF-BB [4] = biological target: T1, PDGF-BB; assay: as above; details: plate coated with vWF protein, A1 domain or HBD peptide, 1 μg/mL GF
Experimental: as §2

VEGF-A165 [5] = biological target: T2, VEGF-A165; assay: as above; details: plate coated with vWF protein, A1 domain or HBD peptide, 1 μg/mL GF
Experimental: as §2

VEGF-A145 = biological target: T5, VEGF-A145 (Homo sapiens, UniProt P15692); assay: vWF binding to recombinant VEGF-A isoforms (ELISA); details: plate coated with 50 nM vWF domains, 1 μg/mL VEGF-A, vs BSA
T5 construct: All GFs and chemokines were purchased in their mature forms; purchased R & D Systems
T5 sequence (P15692 27-171 isoform P15692-6 limits assumed): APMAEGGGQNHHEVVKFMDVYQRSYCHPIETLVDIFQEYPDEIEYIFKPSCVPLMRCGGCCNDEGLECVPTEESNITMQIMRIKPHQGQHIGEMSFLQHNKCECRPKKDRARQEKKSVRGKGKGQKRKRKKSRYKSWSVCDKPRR
Experimental: (§3) ELISA was performed as previously reported1. In brief, ELISA plates (med binding: Greiner Bio-One) were coated with 50 nM BSA (GE Healthcare), pro-peptide containing recombinant vWF (Sino Biological), plasma-derived vWF (EMD Millipore), recombinant human vWF A1 domain (U-Protein Express), recombinant human vWF A2 domain (R & D systems), recombinant human vWF A3 domain (U-Protein Express), vWF A1 HBD peptide or scrambled/mutated HBD peptide (all peptides were synthesized by Genscript). After blocking with 2% BSA solution containing PBS-T, 1 μg/mL of recombinant human VEGF-A121 (PeproTech), recombinant human VEGF-A145 (R & D Systems), or recombinant human VEGF-A165 (PeproTech) was added. Bound VEGF-A was detected with 1 μg/mL of mouse anti-human VEGF-A antibody (clone: 26503, R & D systems). After 60 min of incubation, horseradish peroxidase (HRP) conjugated goat anti-mouse antibody (1:2000 dilution, Dako) was added and incubated for another 60 min. Color development and the absorbance measurement were done as described above.

VEGF-A165 [6] = biological target: T2, VEGF-A165; assay: vWF binding to recombinant VEGF-A isoforms (ELISA); details: plate coated with 50 nM vWF domains, 1 μg/mL VEGF-A, vs BSA
Experimental: as §3

FGF-2 = FGF-2 (Homo sapiens, UniProt P09038); assay: Recombinant GF binding to the vWF recombinant protein and A1 HBD peptide (ELISA); design: All growth factors (GFs) and chemokines were purchased in their mature forms; purchased PeproTech; host or cells: Escherichia coli; details: plate coated with vWF protein, A1 domain or HBD peptide, 1 μg/mL GF
Sequence of FGF-2 (P09038 143-288): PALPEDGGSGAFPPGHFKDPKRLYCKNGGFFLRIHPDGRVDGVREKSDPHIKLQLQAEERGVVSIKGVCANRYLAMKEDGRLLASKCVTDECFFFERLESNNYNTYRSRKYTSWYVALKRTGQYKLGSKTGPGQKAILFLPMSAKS
Experimental: as §2

PlGF-2 [7] = biological target: T3, PlGF-2; assay: as above; design: All growth factors (GFs) and chemokines were purchased in their mature forms; purchased PeproTech; host or cells: Escherichia coli; details: plate coated with vWF protein, A1 domain or HBD peptide, 1 μg/mL GF
Experimental: as §2

[8] = system: full-thickness back-skin wounds in db/db diabetic mice; assay: Retention of VEGF-A165 at the wound site; assay type: in vivo; details: db/db mouse; fibrin matrix with 200 ng VEGF-A165/wound; 3 days after treatment; vs without peptide
Experimental: Retention assays were performed as previously reported^1. Briefly, C57BLKS/J-m/Lepr db (db/db) mice ages 10 to 11 wks were used. Their backs were shaved and four full-thickness punch-biopsy wounds (6 mm in diameter) were created in each mouse. Directly after, fibrin matrices [80 μL total, fibrinogen (10 mg/mL), 2 U/mL human thrombin, 4 U/mL factor XIII, 5 mM calcium chloride, 2 μM α2PI1-8-α33043-3067, 200 ng of recombinant human VEGF-A165] were polymerized on the wounds. To avoid drying of the matrices, the wounds were covered with non-adhering dressing (Adaptic, Johnson & Johnson), and then with adhesive film dressing (Hydrofilm, Hartmann). After 3 or 6 days, mice were sacrificed. The wounds were punched again, in order to recover the fibrinous matrices. Moreover, the tissue surrounding the wounds (2 mm beyond the wound margin) was removed. The tissue was transferred in 0.9 mL of tissue T-PER Tissue Protein Extraction Reagent (Thermo Scientific) containing 1 mg/mL of collagenase IV (Sigma-Aldrich), and homogenized with a tissue homogenizer. […] Recombinant human VEGF-A165 remaining in the fibrinous matrix and in the tissue surrounding the wound were quantified by ELISA (DuoSet, R&D Systems), using 200 ng of recombinant human VEGF-A165 as 100%.

CXCL-11 = biological target: T6, CXCL-11 (Homo sapiens, UniProt O14625); assay: Laminin binding to recombinant GFs (ELISA); details: ELISA A450 nm; signals greater than 0.1 = binding
T6 construct: All growth factors (GFs) and chemokines were purchased in their mature forms; purchased PeproTech; host or cells: Escherichia coli
T6 sequence (O14625 22-94): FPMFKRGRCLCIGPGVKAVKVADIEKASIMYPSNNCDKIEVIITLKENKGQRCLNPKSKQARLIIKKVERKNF
Experimental: (§4) ELISA tests were performed as previously reported. In brief, ELISA plates (med-binding, Greiner Bio-One) were coated with 50 nM GFs at 37° C. for more than 2 hrs. After blocking with 2% BSA solution containing PBS and 0.05% Tween 20 (PBS-T), 10 nM recombinant human laminin isoforms (−111, −211, −332, −411, −421, −511, and −521) (>95% purity tested by SDS-PAGE, BioLamina) were added. Bound laminin was detected with rabbit anti-human laminin γ1 chain antibody (1:1000 dilution, Assay biotech) or rabbit anti-human laminin α3 chain antibody (1:1000 dilution, Assay biotech). After incubation with biotinylated anti-rabbit antibody for 60 min at room temperature (RT), HRP conjugated streptavidin (Jackson ImmunoResearch) was added. After 60 min of incubation at RT, 50 μL TMB substrate (Sigma-Aldrich) was added. The reactions were stopped by adding 25 μL of 2N H2SO4. Subsequently, the absorbance at 450 nm was measured with a reference of 570 nm.

CXCL-12α = biological target: T7, CXCL-12α (Homo sapiens, UniProt P48061); assay: Laminin binding to recombinant GFs (ELISA); details: ELISA A450 nm; signals greater than 0.1 = binding
T7 construct: All GFs and chemokines were purchased in their mature forms; purchased PeproTech; host or cells: Escherichia coli
T7 sequence (P48061 22-89 limits assumed): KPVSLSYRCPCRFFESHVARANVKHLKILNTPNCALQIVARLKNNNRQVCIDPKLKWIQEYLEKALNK
Experimental: as §4

GF binding to laminin = assay: Inhibition of laminin-GF binding by heparin (ELISA); details: heparin added in excess (10 μM); VEGF-A165, PlGF-2 or FGF-2
Experimental: ELISA plates (med-binding) were coated with 10 μg/mL laminin isoforms (−111, −211, −221, −411, −421, −511, and −521) in PBS for 2 hrs at 37° C. Then, wells were blocked with 2% BSA-containing PBS-T and further incubated with 1 μg/mL each of VEGF-A165, PlGF-2, or FGF-2 for 60 min at RT with 10 μM heparin. Next, the wells were incubated with biotinylated anti-VEGF, anti-PlGF, or anti-FGF-2 antibodies (R&D Systems). The antibodies were detected by streptavidin-HRP (R&D Systems).

vWF binding to the GFs = vWF binding to the GFs (Homo sapiens, UniProt P04275); assay: Inhibition of vWF-GF binding by heparin (ELISA); details: excess (10 μM) heparin; VEGF-A165, PlGF-2 or FGF-2
Sequence of vWF binding to the GFs (P04275 764-2813 limits assumed): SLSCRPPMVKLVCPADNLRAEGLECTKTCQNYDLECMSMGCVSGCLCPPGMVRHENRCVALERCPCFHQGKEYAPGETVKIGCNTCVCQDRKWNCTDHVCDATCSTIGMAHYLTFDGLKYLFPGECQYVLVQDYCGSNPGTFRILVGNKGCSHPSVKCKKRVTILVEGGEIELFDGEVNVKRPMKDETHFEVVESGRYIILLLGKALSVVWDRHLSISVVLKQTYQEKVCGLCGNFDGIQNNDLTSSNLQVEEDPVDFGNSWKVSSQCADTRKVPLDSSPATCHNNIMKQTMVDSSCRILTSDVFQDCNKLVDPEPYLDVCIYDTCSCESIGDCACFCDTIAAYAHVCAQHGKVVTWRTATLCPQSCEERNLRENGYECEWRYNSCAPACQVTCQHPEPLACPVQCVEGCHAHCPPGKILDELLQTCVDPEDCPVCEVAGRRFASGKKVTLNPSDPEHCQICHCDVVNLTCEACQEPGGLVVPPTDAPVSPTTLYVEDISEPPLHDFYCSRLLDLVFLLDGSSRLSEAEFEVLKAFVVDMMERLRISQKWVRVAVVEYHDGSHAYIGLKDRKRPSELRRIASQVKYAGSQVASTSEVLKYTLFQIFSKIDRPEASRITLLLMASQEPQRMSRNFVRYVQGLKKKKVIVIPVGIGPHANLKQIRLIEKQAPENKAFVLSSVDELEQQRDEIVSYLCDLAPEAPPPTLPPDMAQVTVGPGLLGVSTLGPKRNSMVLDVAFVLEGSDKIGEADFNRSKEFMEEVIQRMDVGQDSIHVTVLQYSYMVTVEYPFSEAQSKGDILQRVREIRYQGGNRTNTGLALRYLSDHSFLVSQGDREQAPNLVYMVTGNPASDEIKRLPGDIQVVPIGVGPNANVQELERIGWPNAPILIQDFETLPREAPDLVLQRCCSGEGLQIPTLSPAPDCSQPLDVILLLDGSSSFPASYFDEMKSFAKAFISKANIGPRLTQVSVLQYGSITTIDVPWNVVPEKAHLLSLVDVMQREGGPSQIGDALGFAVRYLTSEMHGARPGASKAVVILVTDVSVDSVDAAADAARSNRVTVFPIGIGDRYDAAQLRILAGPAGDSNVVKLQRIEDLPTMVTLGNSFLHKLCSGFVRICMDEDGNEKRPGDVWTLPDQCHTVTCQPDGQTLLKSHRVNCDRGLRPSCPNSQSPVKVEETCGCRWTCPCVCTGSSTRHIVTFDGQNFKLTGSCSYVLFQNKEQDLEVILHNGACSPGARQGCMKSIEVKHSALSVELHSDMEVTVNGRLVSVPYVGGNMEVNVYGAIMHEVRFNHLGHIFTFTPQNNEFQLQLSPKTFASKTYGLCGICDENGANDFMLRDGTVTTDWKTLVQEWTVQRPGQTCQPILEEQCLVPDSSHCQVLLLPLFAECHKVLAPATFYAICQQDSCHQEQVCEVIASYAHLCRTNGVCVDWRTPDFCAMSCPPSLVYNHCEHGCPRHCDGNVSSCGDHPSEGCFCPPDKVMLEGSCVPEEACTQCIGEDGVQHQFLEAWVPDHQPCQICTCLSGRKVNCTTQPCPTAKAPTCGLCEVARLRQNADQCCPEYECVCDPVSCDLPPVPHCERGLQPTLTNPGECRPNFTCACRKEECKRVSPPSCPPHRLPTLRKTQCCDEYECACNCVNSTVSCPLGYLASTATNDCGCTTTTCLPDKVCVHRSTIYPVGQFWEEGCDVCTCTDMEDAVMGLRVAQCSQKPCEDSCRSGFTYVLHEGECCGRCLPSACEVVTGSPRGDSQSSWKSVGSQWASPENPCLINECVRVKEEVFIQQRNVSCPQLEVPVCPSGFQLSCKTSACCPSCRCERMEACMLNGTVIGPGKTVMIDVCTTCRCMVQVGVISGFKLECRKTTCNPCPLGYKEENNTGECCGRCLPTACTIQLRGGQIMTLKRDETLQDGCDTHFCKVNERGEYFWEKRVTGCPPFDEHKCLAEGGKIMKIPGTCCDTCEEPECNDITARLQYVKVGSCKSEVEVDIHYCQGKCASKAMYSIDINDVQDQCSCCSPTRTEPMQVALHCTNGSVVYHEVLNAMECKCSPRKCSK
Experimental: ELISA plates (med-binding) were coated with 10 μg/mL vWF. Then, wells were blocked with 2% BSA-containing PBS-T and further incubated with 1 μg/mL each of VEGF-A, PlGF-2, or FGF-2 for 60 min at room temperature (RT) with 10 μM heparin. Next, the wells were incubated with biotinylated anti-VEGF-A, anti-PlGF, or anti-FGF-2 antibodies (R & D Systems). The antibodies were detected by streptavidin-HRP (R & D Systems). Color development and the absorbance measurement were done as described above.

## laminin-521: recombinant human full-length laminin isoform -521 (BioLamina)
PDGF-BB [1]
  Kd: 24.2 nM
VEGF-A165 [2]
  Kd: 5.8 nM
PlGF-2 [3]
  Kd: 12.9 nM

## recombinant A1 domain: recombinant human vWF A1 domain (U-Protein Express)
CXCL-12γ
  binding to CXCL-12γ: strong binding
PDGF-BB [4]
  binding to PDGF-BB: strong binding
VEGF-A165 [5]
  binding to VEGF-A165: strong binding
VEGF-A145
  binding to VEGF-A145: bound
VEGF-A165 [6]
  binding to VEGF-A165: bound
FGF-2
  binding to FGF-2: strong binding
PlGF-2 [7]
  binding to PlGF-2: strong binding

## NQEQVSPLRLVFALGTDGKKLRIKSKEKCNDGK [α2PI1-8-α33043-3067]
[8]
  amount of VEGF-A165 remaining in the wounds: significantly enhanced

## laminin-332: recombinant human full-length laminin isoform -332 (BioLamina)
CXCL-11
  binding of laminin to CXCL-11: bound weakly
CXCL-12α
  binding of laminin to CXCL-12a: bound weakly

## heparin
GF binding to laminin
  inhibition of GF binding to laminin: inhibited GF binding to laminin
vWF binding to the GFs
  inhibition of vWF binding to the GFs: inhibited vWF binding to the GFs
